Assay results as given in paper doi:10.1101/2025.04.30.651496 (bioRxiv, 2025).

Biological target: the molecule itself
Assay: cryo-EM structure

B1: untagged G3BP2 NTF2L domain (amino acids 1-139) (domain or fragment)
chain: MVMEKPSPLLVGREFVRQYYTLLNKAPEYLHRFYGRNSSYVHGGVDASGKPQEAVYGQNDIHHKVLSLNFSECHTKIRHVDAHATLSDGVVVQVMGLLSNSGQPERKFMQTFVLAPEGSVPNKFYVHNDMFRYEDEVFG
stoichiometry N: 2
